According to patent US20160251440A1 (Ablynx, published 2016):

Assays:
[1] = molecular target: T1, human CD4, cell-expressed (human, UniProt P01730 26-458); assay: cell-based or functional assay
[2] = molecular target: T2, human IL12Rβ1, cell-expressed (human, UniProt P42701 24-662); assay: flow cytometry on isolated CD8+ T cells of donor D863, anti-Flag detection
T2 construct: whole, on cells; in the context of the heterodimeric receptor; also called IL12Rb1

[3] = molecular target: T1, human CD4, cell-expressed; assay: FACS, MOLM-13 cells
[4] = molecular target: T1, human CD4, cell-expressed; assay: cell-based or functional assay; remark: listed apart in the source
[5] = molecular target: T1, human CD4, cell-expressed; assay: FACS, Jurkat E6-1 cells (CD4 low)
[6] = molecular target: T3, human CXCR4 (on cells, viral lipoparticles or membrane extracts) (human, UniProt P61073 1-352); assay: ELISA on coated hCXCR4 lipoparticles against null lipoparticles, anti-c-myc detection
T3 construct: whole, on cells; also called hCXCR4 VLPs; CXCR4-lip

[7] = molecular target: T1, human CD4, cell-expressed; assay: FACS, human T cells
[8] = molecular target: T1, human CD4, cell-expressed; assay: FACS, MOLM-13 cells; remark: listed apart in the source
[9] = molecular target: T1, human CD4, cell-expressed; assay: FACS, THP-1 cells
[10] = molecular target: T1, human CD4, cell-expressed; assay: cell-based or functional assay; remark: listed apart in the source
[11] = molecular target: T1, human CD4, cell-expressed; assay: cell-based or functional assay; remark: listed apart in the source
[12] = molecular target: T1, human CD4, cell-expressed; assay: FACS, Jurkat E6.1 cells (CD4 no or low)
[13] = molecular target: T3, human CXCR4 (on cells, viral …); assay: cell-based or functional assay
[14] = molecular target: T3, human CXCR4 (on cells, viral …); assay: FACS, MOLM-13 cells
[15] = molecular target: T3, human CXCR4 (on cells, viral …); assay: FACS, Jurkat E6-1 cells
[16] = molecular target: T3, human CXCR4 (on cells, viral …); assay: cell-based or functional assay; remark: listed apart in the source
[17] = molecular target: T3, human CXCR4 (on cells, viral …); assay: flow cytometry on THP-1 cells (CD4 and CXCR4), detection via tag
[18] = molecular target: T3, human CXCR4 (on cells, viral …); assay: cell-based or functional assay; remark: listed apart in the source
[19] = molecular target: T3, human CXCR4 (on cells, viral …); assay: flow cytometry on U-937 cells (CXCR4, virtually no IL-3Ra)
[20] = molecular target: T3, human CXCR4 (on cells, viral …); assay: [125I]-SDF-1 displacement, Hek-CXCR4 membrane extracts
[21] = molecular target: T3, human CXCR4 (on cells, viral …); assay: flow cytometry on MOLM-13 cells (IL-3Ra higher than CXCR4)
[22] = molecular target: T3, human CXCR4 (on cells, viral …); assay: cell-based or functional assay; remark: listed apart in the source
[23] = molecular target: T3, human CXCR4 (on cells, viral …); assay: FACS, Jurkat cells
[24] = molecular target: T3, human CXCR4 (on cells, viral …); assay: flow cytometry on THP-1 cells (CXCR4 and IL-3Ra)
[25] = molecular target: T3, human CXCR4 (on cells, viral …); assay: cell-based or functional assay; remark: listed apart in the source
[26] = molecular target: T4, recombinant IL-3Rα ectodomain (human, UniProt P26951 19-305); assay: ELISA on recombinant IL-3Ra ectodomain (both lower panels)
T4 construct: extracellular domain; also called recombinant IL-3Ra; biotinylated-IL-3Rα ectodomain
T4 sequence (looked up): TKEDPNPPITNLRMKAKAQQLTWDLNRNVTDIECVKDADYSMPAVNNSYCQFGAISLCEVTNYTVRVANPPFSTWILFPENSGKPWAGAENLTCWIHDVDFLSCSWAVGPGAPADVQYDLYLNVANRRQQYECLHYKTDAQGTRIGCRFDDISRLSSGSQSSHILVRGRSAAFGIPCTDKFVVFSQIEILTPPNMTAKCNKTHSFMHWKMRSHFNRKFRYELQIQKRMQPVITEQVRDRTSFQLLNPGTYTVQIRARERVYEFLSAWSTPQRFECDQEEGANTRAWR

[27] = molecular target: T3, human CXCR4 (on cells, viral …); assay: cell-based or functional assay; remark: listed apart in the source
[28] = molecular target: T5, human IL-23R extracellular domain Fc-fusion (human, UniProt Q5VWK5 24-355); assay: competition ELISA, coated IL-23 + IL-23R-Fc; IL-23 competition ELISA of Table 3.3
T5 construct: extracellular domain; bought; also called IL-23R-Fc
T5 sequence (looked up): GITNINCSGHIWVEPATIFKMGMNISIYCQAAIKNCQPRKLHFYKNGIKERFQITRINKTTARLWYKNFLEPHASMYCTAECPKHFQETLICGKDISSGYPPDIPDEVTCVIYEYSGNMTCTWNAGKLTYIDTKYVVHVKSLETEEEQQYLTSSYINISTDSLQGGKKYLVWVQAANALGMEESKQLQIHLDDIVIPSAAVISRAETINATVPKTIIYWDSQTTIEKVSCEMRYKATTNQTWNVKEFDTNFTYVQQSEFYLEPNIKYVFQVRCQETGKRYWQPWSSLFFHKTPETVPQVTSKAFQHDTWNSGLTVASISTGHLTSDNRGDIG

[29] = molecular target: T6, human IL-23R, cell-expressed (human, UniProt Q5VWK5 24-629); assay: cell-based or functional assay
T6 sequence (looked up): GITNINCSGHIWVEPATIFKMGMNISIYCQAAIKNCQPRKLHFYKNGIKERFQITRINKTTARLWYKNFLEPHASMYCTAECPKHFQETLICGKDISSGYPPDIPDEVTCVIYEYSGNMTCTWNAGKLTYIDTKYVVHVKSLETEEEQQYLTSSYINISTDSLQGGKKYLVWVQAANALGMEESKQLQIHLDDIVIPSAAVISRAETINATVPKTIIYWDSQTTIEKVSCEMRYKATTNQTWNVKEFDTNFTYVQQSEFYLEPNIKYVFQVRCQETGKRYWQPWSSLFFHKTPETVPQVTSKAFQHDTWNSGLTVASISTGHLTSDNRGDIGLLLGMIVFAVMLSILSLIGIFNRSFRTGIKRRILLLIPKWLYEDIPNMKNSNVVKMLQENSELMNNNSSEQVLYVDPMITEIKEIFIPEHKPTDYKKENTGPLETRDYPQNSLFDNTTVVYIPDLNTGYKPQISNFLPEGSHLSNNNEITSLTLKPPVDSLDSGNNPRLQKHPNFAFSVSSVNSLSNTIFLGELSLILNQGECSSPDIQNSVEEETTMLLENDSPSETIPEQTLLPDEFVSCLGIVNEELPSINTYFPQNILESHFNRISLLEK

[30] = molecular target: T5, human IL-23R extracellular domain …; assay: competition ELISA, coated IL-23 + 5 nM IL-23R-Fc
[31] = molecular target: T1, human CD4, cell-expressed; assay: flow cytometry on MOLM-13 cells (CD4, no IL12R or IL23R), upper right panel
[32] = molecular target: T5, human IL-23R extracellular domain …; assay: SPR Biacore T100, captured IL-23R-Fc
[33] = molecular target: T6, human IL-23R, cell-expressed; assay: FACS, Th17-differentiated T cells

T3 sequence (P61073 whole entry): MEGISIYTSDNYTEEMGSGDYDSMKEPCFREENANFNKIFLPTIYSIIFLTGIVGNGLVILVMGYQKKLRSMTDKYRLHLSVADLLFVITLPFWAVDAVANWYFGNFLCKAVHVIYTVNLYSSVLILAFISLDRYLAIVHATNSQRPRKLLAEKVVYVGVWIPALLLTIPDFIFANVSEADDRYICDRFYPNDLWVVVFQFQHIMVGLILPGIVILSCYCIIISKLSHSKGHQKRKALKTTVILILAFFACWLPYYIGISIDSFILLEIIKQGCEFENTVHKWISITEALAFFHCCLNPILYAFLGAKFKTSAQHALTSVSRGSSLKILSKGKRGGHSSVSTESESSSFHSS

B1: 3F11 (VHH)
VHH: EVQLVESGGGSVQPGGSLTLSCGTSGRTFNVMGWFRQAPGKEREFVAAVRWSSTGIYYTQYADSVKSRFTISRDNAKNTVYLEMNSLKPEDTAVYYCAADTYNSNPARWDGYDFRGQGTQVTVSS
notes: also called CD4#8; 03F11
- IC50, HIV-1 NL4.3 (X4), MT-4 [1]: 66.7 nM
- IC50, HIV-1 NL4.3 (X4), PBMC [1]: 580 nM
- IC50, HIV-1 NL4.3 (X4), U87 [1]: > 1330 nM
- binding result [2]: no binding (tested: 250 nM)
- EC50 [3]: 0.6 nM
- IC50, HIV-1 HE, MT-4 [4]: 10 nM
- IC50, HIV-1 NL4.3, MT-4 [4]: 34.7 nM
- IC50, HIV-2 ROD, MT-4 [4]: 22.7 nM
- EC50 [5]: 61 nM
- binding result [6]: no binding (tested: 100 nM)
- EC50 [7]: 0.76 nM
- EC50 [8]: 0.7 nM
- EC50 [9]: 1 nM
- IC50, HIV-1 NL4.3 wt, MT-4 [10]: 34.7 nM
- IC50, NL4.3 2G12 res., MT-4 [10]: 23.3 nM
- IC50, NL4.3 AMD-3100 res., MT-4 [10]: 22.7 nM
- IC50, NL4.3 CD4#8 res., MT-4 [10]: > 6700 nM
- IC50, NL4.3 CXCL-12res., MT-4 [10]: 153 nM
- IC50, NL4.3 CXCR4#2 res, MT-4 [10]: > 6700 nM
- IC50, HIV-1 NL4.3 neutralization, PBMCs [11]: 29.3 nM
- EC50 [12]: 1.1 nM

B2: 281F12 (VHH)
VHH: EVQLVESGGGLVQAGDSLRLSCAASGRAFSRYAMGWFRQAPGKEREFVAAIGWGPSKTNYADSVKGRFTISRDNAKNTVYLQMNTLKPEDTAVYSCAAKFVNTDSTWSRSEMYTYWGQGTLVTVSS
notes: also called CXCR4#2; 4CXCR281F12-FLAG3-HIS6
- IC50, HIV-1 BaL (R5), PBMC [13]: > 1670 nM
- IC50, HIV-1 NL4.3 (X4), MT-4 [13]: 67.1 nM
- IC50, HIV-1 NL4.3 (X4), PBMC [13]: 29.3 nM
- IC50, HIV-1 NL4.3 (X4), U87 [13]: > 6670 nM
- EC50 [14]: 5.2 nM
- EC50 [15]: 7 nM
- IC50, HIV-1 HE, MT-4 [16]: 10 nM
- IC50, HIV-1 NL4.3, MT-4 [16]: 22.7 nM
- IC50, HIV-2 ROD, MT-4 [16]: 86.7 nM
- EC50 (read off the curve) [17]: ~6 nM
- IC50, HIV-1 NL4.3 wt, MT-4 [18]: 22.7 nM
- IC50, NL4.3 2G12 res., MT-4 [18]: 17.3 nM
- IC50, NL4.3 AMD-3100 res., MT-4 [18]: > 1670 nM
- IC50, NL4.3 CD4#8 res., MT-4 [18]: 87.3 nM
- IC50, NL4.3 CXCL-12res., MT-4 [18]: 220 nM
- IC50, NL4.3 CXCR4#2 res, MT-4 [18]: 2330 nM
- EC50 (read off the curve) [19]: ~10 nM
- Ki [20]: 26.9 nM
- EC50 (read off the curve) [21]: ~20 nM
- IC50, CXCL-12 chemotaxis, Jurkat E6-1 [22]: 96.8 nM
- IC50, CXCL-12 chemotaxis, MOLM-13 [22]: 86 nM
- EC50 [23]: 7.8 nM
- EC50 (read off the curve) [24]: ~20 nM
- IC50, SDF-1 chemotaxis, Jurkat [25]: 68 nM
- binding result [26]: no binding (tested: 1E-6 M)
- IC50, SDF-1 chemotaxis, Jurkat E6-1 [27]: 84.2 nM
- IC50, SDF-1 chemotaxis, MOLM-13 [27]: 86 nM

B3: IL23R#19: 150D02 (VHH)
VHH: EVQLVESGGGLVQPGGSLTLSCVASGRTFSTDVMGWFRQAPGKEREFVAAHRTSGISTVYAASVKGRFTISRDNAKNTVYLGMKSLKPEDTAVYVCAAGSDASGGYDYWGQGTLVTVSS
notes: also called LG150D02
- IC50 [28]: 1.7 nM
- IC50, IL-23 dependent IL-17 release, PBMC D840 [29]: 100 nM
- binding result [2]: no binding (tested: 250 nM)
- IC50 [30]: 4.7 nM
- binding result [31]: no binding (tested: 1E-6 M)
- Kd [32]: 11 nM
- koff [32]: 0.0081 s⁻¹
- kon [32]: 730000 M⁻¹ s⁻¹
- EC50 [33]: 20 nM
